Measured values reported in publication PMC6825541.

Molecular target: recombinant Ebola virus (EBOV) glycoprotein (Zaire ebolavirus (EBOV)) (UniProt Q05320)
Test: SEC

recombinant Ebola virus (EBOV) glycoprotein (from UniProt Q05320) (natural protein)
stoichiometry N: 3
